Measured values taken from US12600782 (BIOTHEUS, dated 2026).
Changes are numbered by the printed parent chain. Where two headings read alike, the source gives them in different places. Values belong to the molecule of their own block, whether it stands above or below them.

T1: human PD-L2 on CHO cells (CHO-hPD-L2 cells) (human, UniProt Q9BQ51 20-273)
T1 construct: whole, on cells; also called CHO-K1-PD-L1/PD-L2
T1 sequence (looked up): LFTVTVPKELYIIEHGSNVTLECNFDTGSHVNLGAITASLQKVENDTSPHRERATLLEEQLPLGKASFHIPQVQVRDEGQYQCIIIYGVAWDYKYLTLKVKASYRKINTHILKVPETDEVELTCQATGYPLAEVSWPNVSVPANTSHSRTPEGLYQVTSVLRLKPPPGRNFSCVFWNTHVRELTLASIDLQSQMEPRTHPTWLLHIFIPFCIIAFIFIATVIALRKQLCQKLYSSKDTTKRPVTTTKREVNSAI

B1: human PD-L2 protein (purchased from AcroBiosystems) (ligand, UniProt Q9BQ51 20-219, looked up)
chain: LFTVTVPKELYIIEHGSNVTLECNFDTGSHVNLGAITASLQKVENDTSPHRERATLLEEQLPLGKASFHIPQVQVRDEGQYQCIIIYGVAWDYKYLTLKVKASYRKINTHILKVPETDEVELTCQATGYPLAEVSWPNVSVPANTSHSRTPEGLYQVTSVLRLKPPPGRNFSCVFWNTHVRELTLASIDLQSQMEPRTHP
modifications: biotinylated in the blocking assays
notes: Bought soluble protein; also called PD-L2 antigen; biotinylated human PD-L2 protein
B2: D-Na-96 (antibody, V domains shown)
VH: QVQLVESGGGLVQAGASLRLSCAASGRTFSSMTIGWFRQTPGKEREFVAGIGWTSGLTVYADSVKGRFTISRDNAEKTMYLHMNNLKPEDTSVYYCAADSMNRGQFDYWGQGTQVTVSS
notes: Anti-PD-L2 heavy chain antibody: VHH linked to human IgG1 (LALA) Fc; the junction is not described
B3: HZ-D-Na-96-1 (antibody, V domains shown)
VH: EVQLVESGGGLVQPGGSLRLSCAASGRTFSSMTIGWFRQAPGKGLEFVSGIGWTSGLTVYADSVKGRFTISRDNAKNSMYLQMNSLRAEDTAVYYCAADSMNRGQFDYWGQGTLVTVSS
notes: Humanized anti-PD-L2 heavy chain antibody: VHH linked to human IgG1 (LALA) Fc; the junction is not described
B4: K-Yr-13&14-02 (antibody, V domains shown)
VH: QVQLVESGGGLVKAGDSLRLSCAASGHTFIIYAIGWFRQAPGKEREFVATINWSGSMTNYTDSVKGRFTISRDNAKNTVYLQMNSLKPDDTAIYYCAAYVGATISTAHSRYDYWGQGTQVTVSS
notes: Anti-PD-L1 heavy chain antibody: VHH linked to human IgG1 (LALA) Fc; the junction is not described
B5: Bi-203-204 (bispecific antibody, human IgG1, kappa, L234A L235A, V domains shown)
V domain 1: B4 VH with A14P, D16G, E44G, R45L, T61A, I93V, Q119L
V domain 2: B3 VH
notes: Formula III + IV format
B6: HZ-K-Yr-13&14-02-3 (antibody, V domains shown)
VH: B4 VH with A14P, D16G, E44G, R45L, T61A, I93V, Q119L
notes: Humanized anti-PD-L1 heavy chain antibody: VHH linked to human IgG1 (LALA) Fc; the junction is not described; also called HZ-K-13&14-02-3

Tests used:
[1] = molecular target: human PD-L1 protein (purchased from AcroBiosystems) (human) (UniProt Q9NZQ7); test: flow cytometry blocking assay: antibody pre-incubated with biotinylated human PD-L1 protein (1 ug/ml), binding of PD-L1 to CHO-hPD-1 cells read as MFI; falling curve, the table under the plot calls the half-maximal concentration EC50; unit from the concentration axis
Sequence of human PD-L1 protein (purchased from AcroBiosystems) (human) (Q9NZQ7 19-238 limits assumed): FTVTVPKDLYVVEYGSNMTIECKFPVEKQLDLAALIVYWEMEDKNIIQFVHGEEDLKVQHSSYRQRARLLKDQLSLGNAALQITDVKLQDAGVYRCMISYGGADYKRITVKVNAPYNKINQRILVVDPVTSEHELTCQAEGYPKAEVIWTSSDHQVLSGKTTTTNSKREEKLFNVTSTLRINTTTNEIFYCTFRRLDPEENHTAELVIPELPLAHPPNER

[2] = molecular target: human PD-L1 protein (purchased from AcroBiosystems) (human) (UniProt Q9NZQ7); test: BLI (ForteBio), antibody on AHQ sensor, 100 nM PD-L1 antigen, 1:1 model
[3] = molecular target: human PD-L1 protein (purchased from AcroBiosystems) (human) (UniProt Q9NZQ7); test: as above; remark: listed apart in the source
[4] = molecular target: human PD-L1 on CHO cells (CHO-hPD-L1 cells) (human) (UniProt Q9NZQ7); test: flow cytometry on CHO-hPD-L1 cells, PE anti-human IgG-Fc, MFI; table under the plot, unit from the concentration axis
Sequence of human PD-L1 on CHO cells (CHO-hPD-L1 cells) (human) (Q9NZQ7 19-290): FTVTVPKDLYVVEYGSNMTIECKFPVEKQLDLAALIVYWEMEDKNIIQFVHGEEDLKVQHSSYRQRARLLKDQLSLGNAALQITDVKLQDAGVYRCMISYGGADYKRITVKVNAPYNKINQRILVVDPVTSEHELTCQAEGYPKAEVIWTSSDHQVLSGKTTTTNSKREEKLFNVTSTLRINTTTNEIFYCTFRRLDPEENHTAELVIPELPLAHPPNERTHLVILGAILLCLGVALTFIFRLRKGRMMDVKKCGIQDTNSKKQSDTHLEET

[5] = molecular target: T2, human PD-1 on CHO cells (CHO-hPD-1 cells) (human, UniProt Q15116 25-288); test: flow cytometry: biotinylated human PD-L2 protein (1 ug/ml) on CHO-hPD-1 cells, no antibody
T2 construct: whole, on cells
T2 sequence (Q15116 25-288): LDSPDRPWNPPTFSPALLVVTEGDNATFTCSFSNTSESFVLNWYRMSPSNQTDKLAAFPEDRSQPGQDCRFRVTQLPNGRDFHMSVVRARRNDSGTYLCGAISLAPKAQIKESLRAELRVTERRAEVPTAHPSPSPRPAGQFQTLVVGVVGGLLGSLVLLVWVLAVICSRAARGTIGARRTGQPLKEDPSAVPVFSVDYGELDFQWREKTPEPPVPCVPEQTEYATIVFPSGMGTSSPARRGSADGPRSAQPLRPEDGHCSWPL
Procedure: (§1) CHO cells overexpressing human PD-1 (CHO-hPD-1 cells) were generated by transfection of the pCHO1.0 vector (purchased from Invitrogen™) cloning human PD-1 cDNA (purchased from Sino Biological). The expanded CHO-hPD-1 cells were adjusted to a cell density of 2×10⁶ cells/ml, and were added to 96-well flow plate at 100 μl/well, and centrifuged for later use. The purified mutant sample was diluted with PBS and diluted 3 times from […] for 12 points. […] The co-incubation sample was added to the above-mentioned 96-well flow plate with cells 100 μl/well, incubated at 4° C. for 30 min, and washed twice with PBS. APC goat anti-mouse IgG (minimum×reactive) antibody diluted 100 times with PBS (purchased from Biolegend®) was added at 100 μl/well, incubated at 4° C. for 30 min, and washed twice with PBS. PBS was added at 100 μl/well to resuspend cells, and detection was performed on a CytoFlex (Bechman) flow cytometer and the corresponding MFI was calculated.

[6] = molecular target: B1; test: flow cytometry blocking assay: antibody pre-incubated with biotinylated human PD-L2 protein (1 ug/ml), binding of PD-L2 to CHO-hPD-1 cells read as MFI (APC)
Procedure: as §1

[7] = molecular target: B1; test: BLI (ForteBio), antibody on AHQ sensor, 100 nM PD-L2 antigen, 1:1 model
Procedure: (§2) ForteBio affinity determination was carried out according to existing methods (Estep, P et al., High throughput solution-based measurement of antibody-antigen affinity and epitope binning. MAbs, 2013.5(2): p. 270-8). In short, the sensor was equilibrated for 30 min under the line of the analysis buffer, and then the baseline was established after online detection for 60 s. The purified antibody obtained as described above was loaded onto the AhQ sensor online. […] Kinetic analysis was performed using a 1:1 binding model.
(§3) The experimental method was the same as that in Example 1.5.

[8] = molecular target: T1, human PD-L2 on CHO cells (CHO-hPD-L2 …); test: flow cytometry on CHO-hPD-L2 cells, PE anti-human IgG-Fc, median fluorescence intensity (MFI)
Procedure: (§4) The expanded CHO-hPD-L2 cells were adjusted to a cell density of 2×10⁶ cells/ml, and were added to 96-well flow plate at 100 μl/well, and centrifuged for later use. […] The diluted samples were added to the 96-well flow plate with cells at 100 μl/well, incubated at 4° C. for 30 min, and washed twice with PBS. Goat F(ab')2 anti-human IgG-Fc (PE) (purchased from Abcam) diluted 100 times with PBS was added at 100 μl/well, incubated at 4° C. for 30 min, and washed twice with PBS. PBS was added at 100 μl/well to resuspend cells, and detection was performed on a CytoFlex (Bechman) flow cytometer and the corresponding MFI was calculated.

[9] = molecular target: T1, human PD-L2 on CHO cells (CHO-hPD-L2 …); test: as above; remark: listed apart in the source
Procedure: as §4

[10] = molecular target: B1; test: BLI (ForteBio), antibody on AHQ sensor, 100 nM PD-L2 antigen, 1:1 model; remark: listed apart in the source
Procedure: as §2

[11] = molecular target: B1; test: flow cytometry blocking assay: antibody pre-incubated with biotinylated human PD-L2 protein (1 ug/ml), binding of PD-L2 to CHO-hPD-1 cells read as MFI
Procedure: as §1

[12] = molecular target: T1, human PD-L2 on CHO cells (CHO-hPD-L2 …); test: flow cytometry on CHO-hPD-L2 cells, PE anti-human IgG-Fc, MFI; table under the plot, unit from the concentration axis
[13] = molecular target: B1; test: flow cytometry blocking assay: antibody pre-incubated with biotinylated human PD-L2 protein (1 ug/ml), binding of PD-L2 to CHO-hPD-1 cells read as MFI (APC); falling curve, the table under the plot calls the half-maximal concentration EC50; unit from the concentration axis
Procedure: (§5) The expanded CHO-hPD-1 cells were adjusted to a cell density of 2 ×10^6 cells/ml, and were added to 96-well flow plate at 100 μl/well, and centrifuged for later use. The purified mutant sample was diluted with PBS and diluted 3 times from […] for 12 points.
(§6) 28 purified sample at 4° C. for 30 min. The co-incubation sample was added to the above-mentioned 96-well flow plate with cells at 100 μl/well, incubated at 4° C. for 30 min, and washed twice with PBS. APC goat anti-mouse IgG (minimum×reactivity) antibody diluted 100 times with PBS (purchased from Biolegend®) was added at 100 μl/well, incubated at 4° C. for 30 min, and washed twice with PBS. PBS was added at 100 μl/well to resuspend cells, and detection was performed on a CytoFlex (Bechman) flow cytometer and the corresponding MFI was calculated.

[14] = molecular target: T3, human PD-L1 on CHO cells (CHO-hPD-L1 cells) (human, UniProt Q9NZQ7 19-290); test: flow cytometry on CHO-hPD-L1 cells, PE anti-human IgG-Fc, median fluorescence intensity (MFI)
T3 construct: whole, on cells; also called CHO-K1-PD-L1/PD-L2
T3 sequence (Q9NZQ7 19-290): as the sequence (Q9NZQ7 19-290) above

[15] = molecular target: T4, human PD-L1 protein (purchased from AcroBiosystems) (human, UniProt Q9NZQ7 19-238, biotinylated in the blocking assay); test: BLI (ForteBio), antibody on AHQ sensor, 100 nM PD-L1 antigen, 1:1 model
T4 construct: Bought soluble protein; also called PD-L1 antigen; biotinylated human PD-L1 protein
T4 sequence (Q9NZQ7 19-238 limits assumed): as the sequence (Q9NZQ7 19-238 limits assumed) above
Procedure: as §2

[16] = molecular target: T4, human PD-L1 protein (purchased from …); test: flow cytometry blocking assay: antibody pre-incubated with biotinylated human PD-L1 protein (1 ug/ml), binding of PD-L1 to CHO-hPD-1 cells read as MFI; falling curve, the table under the plot calls the half-maximal concentration EC50; unit from the concentration axis
Procedure: as §5, §6

[17] = molecular target: T3, human PD-L1 on CHO cells (CHO-hPD-L1 …); test: flow cytometry on CHO-hPD-L1 cells, PE anti-human IgG-Fc, MFI; table under the plot, unit from the concentration axis
[18] = molecular target: T4, human PD-L1 protein (purchased from …); test: BLI (ForteBio), antibody on AHQ sensor, 100 nM PD-L1 antigen, 1:1 model; remark: listed apart in the source
Procedure: as §2, §3

EC50 [1]: 6.31 nM
Kd [2]: 1.16 nM
Kd [3]: 1.3 nM
EC50 [4]: 4.53 nM
Molecule: control antibody ATE

Molecule: B1
binding result [5]: binds

Molecule: B2
IC50 (read off the curve) [6]: ~2 nM
Kd [7]: 2.5 nM
koff [7]: 0.000655 s⁻¹
kon [7]: 262000 M⁻¹ s⁻¹
EC50 (read off the curve) [8]: ~6 nM
EC50 (read off the curve) [9]: ~50 nM
Kd [10]: 1.27 nM
koff [10]: 0.0011 s⁻¹
kon [10]: 862000 M⁻¹ s⁻¹
IC50 (read off the curve) [11]: ~9 nM

Molecule: B3
EC50 [12]: 1.75 nM
EC50 [13]: 13.4 nM
IC50 (read off the curve) [6]: ~2 nM
Kd [7]: 1.68 nM
koff [7]: 0.000577 s⁻¹
kon [7]: 344000 M⁻¹ s⁻¹
EC50 (read off the curve) [8]: ~4 nM
Kd [10]: 1.11 nM
koff [10]: 0.0004 s⁻¹
kon [10]: 360000 M⁻¹ s⁻¹

Molecule: B4
EC50 (read off the curve) [14]: ~8 nM
Kd [15]: 0.96 nM
koff [15]: 0.000561 s⁻¹
kon [15]: 585000 M⁻¹ s⁻¹

Molecule: B5
EC50 [16]: 12.3 nM
EC50 [12]: 1.25 nM
EC50 [13]: 8.35 nM
Kd [15]: 1.59 nM
koff [15]: 0.000405 s⁻¹
kon [15]: 254000 M⁻¹ s⁻¹
EC50 [17]: 3.74 nM
Kd [10]: 1.14 nM
koff [10]: 0.000424 s⁻¹
kon [10]: 372000 M⁻¹ s⁻¹

Molecule: B6
EC50 [16]: 5.17 nM
EC50 (read off the curve) [14]: ~10 nM
Kd [15]: 1.38 nM
koff [15]: 0.000309 s⁻¹
kon [15]: 224000 M⁻¹ s⁻¹
EC50 [17]: 2.55 nM
Kd [18]: 0.223 nM
koff [18]: 9.92e-05 s⁻¹
kon [18]: 445000 M⁻¹ s⁻¹
